Measurements reported in paper doi:10.1101/2022.08.09.503292.
Like-named read-outs stand apart in the source and are kept apart here. Values belong to the molecule of their own block, whether it stands above or below them.

How the values were obtained:
[1] = molecular target: mono-nucleosome with extra-nucleosomal linker DNA (185-bp '601'), Oregon green 488 on H2B D51C (NCP^185) (human) (UniProt Q6FI13); assay: other fluorescence titration
BARD1 124-270 = BARD1 124-270 (UniProt Q99728 124-270); assay: NMR
Chain of BARD1 124-270 (Q99728 124-270): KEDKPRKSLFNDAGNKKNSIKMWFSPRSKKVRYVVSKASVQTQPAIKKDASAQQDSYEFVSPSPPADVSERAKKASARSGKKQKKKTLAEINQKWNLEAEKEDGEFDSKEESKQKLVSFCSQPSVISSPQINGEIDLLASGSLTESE

BARD1 141-216 [2] = molecular target: T1, BARD1 141-216 (UniProt Q99728 141-216); assay: NMR
T1 sequence (Q99728 141-216): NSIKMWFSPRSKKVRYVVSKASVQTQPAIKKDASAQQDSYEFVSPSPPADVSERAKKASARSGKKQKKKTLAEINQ

BARD1 141-216 [3] = molecular target: T1, BARD1 141-216; assay: NMR; remark: listed apart in the source

fold increase in binding affinity with linker DNA (NCP^185 against NCP^147) [1]: < 2 fold
Molecule: BRCA1^RING/BARD1^216 heterodimer (from UniProt P38398 1-112; Q99728 1-216) (complex)

B1: 36-mer dsDNA (dsDNA)
DNA 1: CCTACGACGCCTGGGGTACCAGCGCAATTGTGTACC
DNA 2: GGTACACAATTGCGCTGGTACCCCAGGCGTCGTAGG
binding result (BARD1 124-270): binds
binding result (BARD1 141-216 [2]): binds

B2: 36-mer bubble-DNA (mixed)
DNA 1: CCTACGACGCCTGGCTCTTTCCCGCAATTGTGTACC
DNA 2: B1 DNA 2
binding result (BARD1 141-216 [3]): binds
